The labels stand for the following.
B1: LRRC45 (parent)
chain: DLSAANEKNLLLQNQVDELERKFR
B2: RHOBTB2 (parent)
chain: LYTGELDENERDLMHIAHIAELLE

For 94 variants, protein stability index results are on record in the supplement of paper PMC10567573.
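Also: lentivirally expressed fusions sorted by FACS into six bins by GFP to DsRed ratio, PSI derived from sequencing read proportions per bin multiplied by bin number.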

The first data set covers variants of B1. The experiment in a line: protein stability index of a GFP-peptide fusion (GPS, HEK-293T) (PSI 1-6); higher = more stable. The conditions noted are these: c terminus: a fixed tail appended.
On to DLSAANEKNLLLQNQVDELERKFM, for which the protein stability index came out at 3.96.
Same read-out and setting: the value for DLSAANEKNLLLQNQVDELERKFT was 4.14; that for DLSAANEKNLLLQNQVDELERKFH was 4.31.
The same measure, in the same setting: the figure for DLSAANEKNLLLQNQVDELERKFP is 4.59; for DLSAANEKNLLLQNQVDELERKFC it is 4.36; for DLSAANEKNLLLQNQVDELERKFL it is 3.78.
As to DLSAANEKNLLLQNQVDELERKFI, the protein stability index amounted to 3.85.
For DLSAANEKNLLLQNQVDELERKFA, the protein stability index came to 4.69.
Still for that read-out and setting: the value for DLSAANEKNLLLQNQVDELERKFN was 4.47; that for DLSAANEKNLLLQNQVDELERKFY was 4.17; that for DLSAANEKNLLLQNQVDELERKFS was 4.25.
Regarding DLSAANEKNLLLQNQVDELERKFD, the protein stability index was determined as 4.86.
In the case of DLSAANEKNLLLQNQVDELERKFF, the protein stability index worked out at 3.62.
In the case of DLSAANEKNLLLQNQVDELERKFK, the protein stability index is 4.66.
The same measure, in the same setting: the figure for DLSAANEKNLLLQNQVDELERKFE is 4.71; for DLSAANEKNLLLQNQVDELERKFW it is 3.52.
On the same count and under the same terms, the figure for DLSAANEKNLLLQNQVDELERKFQ is 4.91; for DLSAANEKNLLLQNQVDELERKFG it is 4.48.
Consider DLSAANEKNLLLQNQVDELERKFV, for which the protein stability index was 3.71.
With DLSAANEKNLLLQNQVDELERSFR, the protein stability index worked out at 4.15.
On the same count and under the same terms, the value for DLSAANEKNLLLQNQVDELERLFR was 3.49; that for DLSAANEKNLLLQNQVDELERPFR was 3.88; that for DLSAANEKNLLLQNQVDELERMFR was 3.34.
Turning to DLSAANEKNLLLQNQVDELERWFR, the protein stability index amounted to 3.14.
Still for that read-out and setting: the value for DLSAANEKNLLLQNQVDELERRFR was 3.22; that for DLSAANEKNLLLQNQVDELERTFR was 3.71; that for DLSAANEKNLLLQNQVDELERQFR was 4.06.
The same measure, in the same setting: the figure for DLSAANEKNLLLQNQVDELERVFR is 3.27; for DLSAANEKNLLLQNQVDELERYFR it is 3.34.
On the same count and under the same terms, the value for DLSAANEKNLLLQNQVDELERNFR was 4.18; that for DLSAANEKNLLLQNQVDELERKKR was 4.33.
With DLSAANEKNLLLQNQVDELERKNR, the protein stability index is 4.78.
Same read-out and setting: the value for DLSAANEKNLLLQNQVDELERKPR was 4.77.
Still for that read-out and setting: the value for DLSAANEKNLLLQNQVDELERKSR was 4.36.
On the same count and under the same terms, the value for DLSAANEKNLLLQNQVDELERKLR was 4.33.
In the case of DLSAANEKNLLLQNQVDELERKIR, the protein stability index is 3.6.
In the case of DLSAANEKNLLLQNQVDELERKRR, the protein stability index amounted to 3.86.
Same read-out and setting: the value for DLSAANEKNLLLQNQVDELERKAR was 5.13; that for DLSAANEKNLLLQNQVDELERKTR was 4.39; that for DLSAANEKNLLLQNQVDELERKWR was 3.13.
The same measure, in the same setting: the value for DLSAANEKNLLLQNQVDELERKQR was 4.29; that for DLSAANEKNLLLQNQVDELERKVR was 3.91.
As to DLSAANEKNLLLQNQVDELERKYR, the protein stability index is 3.85.
Same read-out and setting: the figure for DLSAANEKNLLLQNQVDELERKHR is 3.98; for DLSAANEKNLLLQNQVDELERKCR it is 4.01.
Same read-out and setting: the value for DLSAANEKNLLLQNQVDELERKDR was 5.
As for DLSAANEKNLLLQNQVDELERKER, the protein stability index turned out to be 5.34.
With DLSAANEKNLLLQNQVDELERKGR, the protein stability index amounted to 4.6.
The same measure, in the same setting: the figure for DLSAANEKNLLLQNQVDELERKMR is 4.63.

The next data set covers variants of B2. The description is as above. The conditions noted are these: c terminus: a fixed tail appended.
Turning to LYAGELDENERDLMHIAHIAELLE, the protein stability index amounted to 2.58.
Still for that read-out and setting: the figure for LYFGELDENERDLMHIAHIAELLE is 3.07; for LYHGELDENERDLMHIAHIAELLE it is 2.08; for LYEGELDENERDLMHIAHIAELLE it is 2.98.
Same read-out and setting: the figure for LYDGELDENERDLMHIAHIAELLE is 3; for LYCGELDENERDLMHIAHIAELLE it is 2.31.
Same read-out and setting: the figure for LYGGELDENERDLMHIAHIAELLE is 1.91; for LWTGELDENERDLMHIAHIAELLE it is 1.69.
As for LNTGELDENERDLMHIAHIAELLE, the protein stability index came to 3.17.
Take LMTGELDENERDLMHIAHIAELLE: the protein stability index was determined as 2.73.
For the variant LPTGELDENERDLMHIAHIAELLE, the protein stability index was found to be 3.2.
Still for that read-out and setting: the figure for LTTGELDENERDLMHIAHIAELLE is 3.44; for LSTGELDENERDLMHIAHIAELLE it is 3.34.
Same read-out and setting: the figure for LHTGELDENERDLMHIAHIAELLE is 3.8; for LRTGELDENERDLMHIAHIAELLE it is 3.21; for LDTGELDENERDLMHIAHIAELLE it is 3.68.
On the same count and under the same terms, the value for LFTGELDENERDLMHIAHIAELLE was 2.78.
On to LVTGELDENERDLMHIAHIAELLE, for which the protein stability index came out at 3.45.
On the same count and under the same terms, the figure for LATGELDENERDLMHIAHIAELLE is 2.73.
Still for that read-out and setting: the figure for LITGELDENERDLMHIAHIAELLE is 2.54; for LQTGELDENERDLMHIAHIAELLE it is 3.01; for LLTGELDENERDLMHIAHIAELLE it is 2.37.
Same read-out and setting: the value for LCTGELDENERDLMHIAHIAELLE was 2.04; that for LGTGELDENERDLMHIAHIAELLE was 3.25; that for LETGELDENERDLMHIAHIAELLE was 3.49.
Take LKTGELDENERDLMHIAHIAELLE: the protein stability index was 2.74.
The same measure, in the same setting: the figure for WYTGELDENERDLMHIAHIAELLE is 2.43; for EYTGELDENERDLMHIAHIAELLE it is 2.72.
Turning to QYTGELDENERDLMHIAHIAELLE, the protein stability index came out at 3.08.
On the same count and under the same terms, the figure for NYTGELDENERDLMHIAHIAELLE is 2.8.
On the same count and under the same terms, the figure for HYTGELDENERDLMHIAHIAELLE is 2.61; for PYTGELDENERDLMHIAHIAELLE it is 2.92.
For the variant GYTGELDENERDLMHIAHIAELLE, the protein stability index was determined as 2.53.
Still for that read-out and setting: the value for KYTGELDENERDLMHIAHIAELLE was 2.49.
Same read-out and setting: the figure for IYTGELDENERDLMHIAHIAELLE is 2; for CYTGELDENERDLMHIAHIAELLE it is 2.67; for SYTGELDENERDLMHIAHIAELLE it is 2.52.
As for TYTGELDENERDLMHIAHIAELLE, the protein stability index stood at 2.1.
Same read-out and setting: the value for VYTGELDENERDLMHIAHIAELLE was 2.8.
The same measure, in the same setting: the figure for DYTGELDENERDLMHIAHIAELLE is 3.08.
The same measure, in the same setting: the figure for AYTGELDENERDLMHIAHIAELLE is 2.62.
With MYTGELDENERDLMHIAHIAELLE, the protein stability index amounted to 2.72.
FYTGELDENERDLMHIAHIAELLE: the protein stability index came to 3.02.
Consider YYTGELDENERDLMHIAHIAELLE, for which the protein stability index worked out at 2.78.
In the case of RYTGELDENERDLMHIAHIAELLE, the protein stability index stood at 2.93.
